Laboratory results taken from US20060140870A1, “Method for assessing tumor response to cancer treatment” (General Electric Company, priority 2004, published 2006).

Test: Relaxivity (T1) of the contrast agent as a measure of molecular conformation
Assay type: physicochemical
Conditions: low for an elongated conformation, high for a globular (folded) one

Substance | relaxivity
Polylysine-Gd-DTPA [Gd- DTPA polylysine] | about 8 sec.−1 mM−1
albumen | about 15 sec.−1 mM−1
